Data taken from patent EP4296276A1 (Forschungszentrum Jülich GmbH, dated 2023).
Positions count from the first letter of the chain named. Ends that are not written are not given here.

T1: wild-type (WT) human DISC1 C-region (residues 691-836) (human, UniProt Q9NRI5 691-836)
T1 construct: range 691-836; Expressed in E. coli as an N-terminal His6 fusion construct, purified on Co2+-NTA and by size exclusion; Used in solution at 2 µM in BLI; also called WT C-region; C-region of DISC1; not shown: N-terminal His6 fusion tag
T1 sequence (looked up): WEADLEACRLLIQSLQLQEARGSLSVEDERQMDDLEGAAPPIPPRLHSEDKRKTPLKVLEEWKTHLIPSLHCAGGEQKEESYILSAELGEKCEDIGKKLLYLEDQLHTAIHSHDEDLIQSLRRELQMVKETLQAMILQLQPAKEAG

T2: DISC1 C-region (residues 691-836) mutant S713E (human, UniProt Q9NRI5 691-836)
T2 construct: range 691-836; Expression and tag are described only for the WT construct (N-terminal His6)
T2 sequence (looked up): T1 sequence (looked up) with S23E

T3: DISC1 C-region (residues 691-836) mutant S704C (human, UniProt Q9NRI5 691-836)
T3 construct: range 691-836; Expression and tag are described only for the WT construct (N-terminal His6)
T3 sequence (looked up): T1 sequence (looked up) with S14C

B1: Flm1 (IWAGHIHDWWRRGQGS-NH2) (peptide)
peptide: IWAGHIHDWWRRGQGS-NH2
modifications: not fully specified; printed as IWAGHIHDWWRRGQGS-NH2
notes: Phage display hit selected on monomeric WT C-region; Immobilised on the BLI sensor by EDC/NHS coupling
B2: Flm11 (HKLHHLLKWENQHKVE-NH2) (peptide)
peptide: HKLHHLLKWENQHKVE-NH2
notes: as for B1
B3: Flo8 (KYTAIHEWYKAHNGGA-NH2) (peptide)
peptide: KYTAIHEWYKAHNGGA-NH2
notes: Phage display hit selected on oligomeric WT C-region; Immobilised on the BLI sensor by EDC/NHS coupling
B4: Flo1 (FPHPTLKHREFMRHVS-NH2) (peptide)
peptide: FPHPTLKHREFMRHVS-NH2
notes: as for B3
B5: Flm9 (PWYNAPHSHGFWGSGR-NH2) (peptide)
peptide: PWYNAPHSHGFWGSGR-NH2
notes: as for B1
B6: Flo5 (QDNPWWHEHKHWKSWP-NH2) (peptide)
peptide: QDNPWWHEHKHWKSWP-NH2
notes: as for B3
B7: Flm2 (AWQHHELKWKQYQGWR-NH2) (peptide)
peptide: AWQHHELKWKQYQGWR-NH2
notes: as for B1
B8: Flm5 (GIKSLISNKMHTQWNY-NH2) (peptide)
peptide: GIKSLISNKMHTQWNY-NH2
notes: as for B1
B9: Flo6 (SNWHPRHFFMSPSSPQ-NH2) (peptide)
peptide: SNWHPRHFFMSPSSPQ-NH2
notes: as for B3
B10: Flm6 (WNHPMNIRSISWHKDS-NH2) (peptide)
peptide: WNHPMNIRSISWHKDS-NH2
notes: as for B1
B11: Flo11 (TSGVPWWKFQQQVRRT-NH2) (peptide)
peptide: TSGVPWWKFQQQVRRT-NH2
notes: as for B3
B12: Flo3 (HISMQTYKWSQWAKHQ-NH2) (peptide)
peptide: HISMQTYKWSQWAKHQ-NH2
notes: as for B3

Each binder was assayed against DISC1 C-region mutant L807-frameshift (human) (UniProt Q9NRI5) (assay: BLI (Octet), peptide immobilised, protein 2 µM; KD = koff/kon).
IWAGHIHDWWRRGQGS-NH2 (not fully specified; printed as IWAGHIHDWWRRGQGS-NH2) [Flm1 (…-NH2)] gave a Kd of 200 nM.
Binder AWQHHELKWKQYQGWR-NH2 [Flm2 (…-NH2)] has a Kd of 110 nM.
KYTAIHEWYKAHNGGA-NH2 [Flo8 (…-NH2)] showed a Kd of 170 nM.
With SNWHPRHFFMSPSSPQ-NH2 [Flo6 (…-NH2)] the Kd was 170 nM.
For QDNPWWHEHKHWKSWP-NH2 [Flo5 (…-NH2)], the Kd was 270 nM.
HKLHHLLKWENQHKVE-NH2 [Flm11 (…-NH2)] was tested, and the Kd was 540 nM.
For PWYNAPHSHGFWGSGR-NH2 [Flm9 (…-NH2)], the Kd was 390 nM.
In the case of GIKSLISNKMHTQWNY-NH2 [Flm5 (…-NH2)], the Kd is reported as 110 nM.
FPHPTLKHREFMRHVS-NH2 [Flo1 (…-NH2)] was tested, and the Kd was 40 nM.
Work on WNHPMNIRSISWHKDS-NH2 [Flm6 (…-NH2)] yielded a Kd of 530 nM.
TSGVPWWKFQQQVRRT-NH2 [Flo11 (…-NH2)] showed a Kd of 160 nM.
Binder HISMQTYKWSQWAKHQ-NH2 [Flo3 (…-NH2)] has a Kd of 400 nM.

These binders were tested against T1, wild-type (WT) human DISC1 C-region … in the same assay as above.
B1 was tested, and the Kd was 150 nM.
Work on B2 yielded a Kd of 1270 nM.
In the case of B3, the Kd is reported as 2620 nM.
Work on B4 yielded a Kd of 100 nM.
B5 was tested, and the Kd was 3200 nM.
B6 showed a Kd of 250 nM.
B7 showed a Kd of 640 nM.
In the case of B8, the Kd is reported as 640 nM.
Work on B9 yielded a Kd of 2360 nM.
In the case of B10, the Kd is reported as 2010 nM.
B11 was tested, and the Kd was 3680 nM.
B12 was tested, and the Kd was 2620 nM.

Each binder was assayed against T2, DISC1 C-region (residues 691-836) … in the same assay as above.
In the case of B1, the Kd is reported as 80 nM.
Work on B2 yielded a Kd of 420 nM.
For B3, the Kd was 460 nM.
Binder B4 has a Kd of 70 nM.
B5 showed a Kd of 1500 nM.
Work on B6 yielded a Kd of 210 nM.
In the case of B7, the Kd is reported as 220 nM.
B8 gave a Kd of 80 nM.
B9 was tested, and the Kd was 460 nM.
B10 gave a Kd of 1070 nM.
With B11 the Kd was 890 nM.
Binder B12 has a Kd of 420 nM.

What follows are binders tested against T3, DISC1 C-region (residues 691-836) … in the same assay as above.
B1 was tested, and the Kd was 80 nM.
B2 gave a Kd of 720 nM.
With B3 the Kd was 1040 nM.
For B4, the Kd was 160 nM.
B5 showed a Kd of 1490 nM.
For B6, the Kd was 360 nM.
B7 showed a Kd of 150 nM.
In the case of B8, the Kd is reported as 150 nM.
Work on B9 yielded a Kd of 720 nM.
Binder B10 has a Kd of 2240 nM.
B11 gave a Kd of 1060 nM.
With B12 the Kd was 270 nM.
